The text below walks through data of PMC8981238, “C-type cytochrome-initiated reduction of bacterial lytic polysaccharide monooxygenases” (Biochemical Journal, 2021).

Substrate in data set [1]: O=C1O[C@H]([C@@H](O)CO)C(O)=C1O
Briefly: Amplex Red / horseradish peroxidase coupled H2O2 production, initial rates. The format is biochemical, Cellvibrio japonicus. Particulars: reductant varied, no polysaccharide, O2 from air, 50 mM sodium phosphate pH 6.0, room temperature, 2 µM LPMO. An excerpt: Amplex Red / horseradish peroxidase coupled H2O2 production, initial rates on CjAA10BΔCBM | concentration of CjX183, or ascorbate, was varied around calculated KM values

Data set [2] concerns the target CjAA10BΔCBM, cellulose active LPMO CjAA10B from Cellvibrio japonicus lacking its CBM (Cellvibrio japonicus).
The target in data set [3] is CfAA10, LPMO from Cellulomonas fimi (Cellulomonas fimi).

B1: CjAA10BΔCBM (Cellvibrio japonicus Ueda107) (protein)
chain: HGFVDSPGARNYFCGAVTKPDHVMNGVARYPECAGAFANDFNGGYSYMSVLTHHQGRKVLGPVARNVCGFDSETWNGGKTPWDNAINWPVNNINSGTLTFSWDISNGPHFDDTSDFRYWITKPGFVYQVGRELTWADFEDQPFCDLAYNDDNPGAYPNVRADKPNTHFHTTCTVPARTGRHVIYAEWGREPPTYERFHGCIDVQIGGGSNSSVPVSSSSSSRSSSSSSLAPSSSSRSSSSSSSVSSSRSSSSSVVSSSSSSRPASSSSSSTGGS
notes: AA10 catalytic part, C-terminal CBM deleted, from pET22-CjAA10B
Broadly, the Km is the substrate concentration at which the rate is half of its maximum. With B1, the Km in data set [1] worked out at 5.8 ± 0.3 µM.

B2: CjX183, c-type cytochrome X183 domain of Cbp2D from Cellvibrio japonicus (domain or fragment)
chain: GYLVGDATRGANLWNTQTCVACHGVDGERNASGTPALTPLNPNRDLYRHSRDTQDRALRDFISMWMPQGNEGSCTGQCAADIEAFIRTW
modifications: heme c covalently linked via thioether linkages to Cys19 and Cys22 (numbering of the structure); disulfide bond between cysteines 74 and 78
Consider B2, for which, in data set [2], the rate of oxidation of reduced CjX183 (10 µM, decay of A552, single exponential) with 0 to 50 µM CjAA10BΔCBM; rate rose linearly was found to be 0.56 min⁻¹. In addition, in data set [3], the rate of oxidation of reduced CjX183 (10 µM, decay of A552, single exponential) with 0 to 50 µM CfAA10; rate rose linearly was 1.13 min⁻¹.
